Measured values reported in PMC2796264.

Target: 26S proteasome purified from rabbit muscle (rabbit (endogenous in muscle))

hydrolysis of suc-GGL-amc by rabbit 26S proteasomes with ubiquitinated E6AP: < 4 fold
Substance: polyubiquitinated E6AP (from UniProt P0CG47 1-76)
